Experimental data reported in US6689878B2, “Target of RNAIII activating protein (TRAP)” (The Regents of the University of California, priority 1998, dated 2004).

Test: Sensitivity of TRAP phosphorylation to acidic and basic conditions
Format: physicochemical, Staphylococcus aureus
Text: Two-component systems act through phosphorylation of the substrate domain of the sensor protein and subsequent transfer of the phosphate to an aspartate residue in the regulator protein. The initial phosphorylation is catalyzed by a protein histidine kinase domain in the sensor protein and results in an N-phosphorylated histidine residue, which is stable in alkaline conditions but not in acidic conditions (Wei et al. Methods Enymol. 200:388-414 (1991)). To test whether TRAP may be histidine-phosphorylated and therefore a candidate sensor to RAP, phosphorylated TRAP was tested for sensitivity to acidic and basic conditions. Phosphorylated TRAP was incubated at pH ranging from 3-10, for 10 min at room temperature. The mixture was then applied to SDS PAGE and the gel autoradiographed.

B1: Phosphorylated TRAP: approximately 21 kDa S. aureus protein target of RAP, SEQ ID NO:2, phosphorylated by RAP (protein)
chain: MKKLYTSYGTYGFLHQIKINNPTHQLFQFSASDTSVIFEETDGETVLKSPSIYEVIKEIGEFSEHHFYCAIFIPSTEDHAYQLEKKLISVDDNFRNFGGFKSYRLLRPAKGTTYKIYFGFADRHAYEDFKQSDAFNDHFSKDALSHYFGSSGQHSSYFERYLYPIKE
modifications: phosphorylated
Stability of TRAP phosphorylation in lower pHs (lower pHs (range tested pH 3-10), 10 min at room temperature): labile
Stability of TRAP phosphorylation at pH 8-10 (pH 8-10, 10 min at room temperature): stable
